Laboratory results from patent US20200079850A1 (SUTRO BIOPHARMA, published 2020).

T1: recombinant human LAG3 protein (rhLAG3), HIS-tagged (ACRO) or biotinylated (R&D Cat #2319-C3) (human, UniProt P18627 23-450, biotinylated in part of the assays)
T1 sequence: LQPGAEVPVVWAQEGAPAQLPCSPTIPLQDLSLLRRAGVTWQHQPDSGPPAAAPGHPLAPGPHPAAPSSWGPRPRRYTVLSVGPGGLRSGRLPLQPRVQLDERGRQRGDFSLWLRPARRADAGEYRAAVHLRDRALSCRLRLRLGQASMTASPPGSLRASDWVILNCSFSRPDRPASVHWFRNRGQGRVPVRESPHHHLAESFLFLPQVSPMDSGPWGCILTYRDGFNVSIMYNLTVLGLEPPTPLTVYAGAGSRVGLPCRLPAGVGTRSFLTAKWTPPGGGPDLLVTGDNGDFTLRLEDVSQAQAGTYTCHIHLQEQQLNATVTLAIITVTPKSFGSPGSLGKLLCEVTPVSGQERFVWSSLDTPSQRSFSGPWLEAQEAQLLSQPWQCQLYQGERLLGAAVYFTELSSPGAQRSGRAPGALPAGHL

T2: hLAG3 (Acro Biosystems), SPR analyte (human, UniProt P18627 23-450)
T2 construct: also called human LAG3 kinetics
T2 sequence: T1 sequence

B1: PD-1/LAG3 Bi-specific Construct B: aPD1 1353-G10 scFvFc zwB R28T/P30D/H31S V262E; aLAG3 1449-G09.2 Fab zwA V262E (bispecific antibody, human IgG1, kappa)
scFv: EVQLVQSGAEVKKPGASVKVSCKASGYTFDSYGISWVRQAPGQGLEWMGWISAYNGNTNYAQKLQGRVTMTTDTSTNTAYMELRSLRSDDTAVYYCARDVDYGTGSGYWGQGTLVTVSSGGGGSGGGGSGGGGSSYELTQPPSVSVSPGQTARITCSGDALPKQYAYWYQQKPGQAPVMVIYKDTERPSGIPERFSGSSSGTKVTLTISGVQAEDEADYYCQSADNSITYRVFGGGTKVTVLAAGSDQEPKSSDKTHTCPPCPAPELLGGPSVFLFPPKPKDTLMISRTPEVTCEVVDVSHEDPEVKFNWYVDGVEVHNAKTKPREEQYNSTYRVVSVLTVLHQDWLNGKEYKCKVSNKALPAPIEKTISKAKGQPREPQVYVLPPSREEMTKNQVSLLCLVKGFYPSDIAVEWESNGQPENNYLTWPPVLDSDGSFFLYSKLTVDKSRWQQGNVFSCSVMHEALHNHYTQKSLSLSPGK
heavy: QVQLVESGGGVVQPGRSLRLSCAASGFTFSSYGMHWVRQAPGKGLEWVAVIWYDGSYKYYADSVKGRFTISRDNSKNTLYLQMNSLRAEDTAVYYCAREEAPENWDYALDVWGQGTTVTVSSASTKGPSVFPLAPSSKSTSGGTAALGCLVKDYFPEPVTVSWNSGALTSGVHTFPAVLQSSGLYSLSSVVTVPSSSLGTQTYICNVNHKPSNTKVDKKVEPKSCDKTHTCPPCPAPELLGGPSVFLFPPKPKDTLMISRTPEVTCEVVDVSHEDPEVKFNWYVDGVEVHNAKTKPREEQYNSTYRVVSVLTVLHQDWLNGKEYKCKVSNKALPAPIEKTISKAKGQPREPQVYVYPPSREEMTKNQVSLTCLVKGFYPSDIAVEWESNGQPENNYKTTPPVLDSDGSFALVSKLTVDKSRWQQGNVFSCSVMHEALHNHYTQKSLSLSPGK
light: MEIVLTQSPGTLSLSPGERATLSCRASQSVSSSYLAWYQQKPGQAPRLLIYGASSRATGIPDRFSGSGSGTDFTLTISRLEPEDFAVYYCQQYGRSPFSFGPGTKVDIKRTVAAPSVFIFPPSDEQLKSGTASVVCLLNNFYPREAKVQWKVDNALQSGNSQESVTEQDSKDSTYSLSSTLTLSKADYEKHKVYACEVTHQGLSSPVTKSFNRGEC
notes: The N-terminal Met is not included
B2: PD-1/LAG3 Bi-specific Construct C: aPD1 1353-G10 Vk1-39LC scFvFc zwB V262E; aLAG3 1449-G09.2 Fab zwA V262E (bispecific antibody, human IgG1, kappa)
scFv: EVQLVQSGAEVKKPGASVKVSCKASGYRFPHYGISWVRQAPGQGLEWMGWISAYNGNTNYAQKLQGRVTMTTDTSTNTAYMELRSLRSDDTAVYYCARDVDYGTGSGYWGQGTLVTVSSGGGGSGGGGSGGGGSDIQLTQSPSSLSASVGDRVTITCSGDALPKQYAYWYQQKPGKAPKLLIYKDTERPSGVPSRFSGSSSGTKVTLTISSLQPEDFATYYCQSADNSITYRVFGGGTKVEIKAAGSDQEPKSSDKTHTCPPCPAPELLGGPSVFLFPPKPKDTLMISRTPEVTCEVVDVSHEDPEVKFNWYVDGVEVHNAKTKPREEQYNSTYRVVSVLTVLHQDWLNGKEYKCKVSNKALPAPIEKTISKAKGQPREPQVYVLPPSREEMTKNQVSLLCLVKGFYPSDIAVEWESNGQPENNYLTWPPVLDSDGSFFLYSKLTVDKSRWQQGNVFSCSVMHEALHNHYTQKSLSLSPGK
heavy: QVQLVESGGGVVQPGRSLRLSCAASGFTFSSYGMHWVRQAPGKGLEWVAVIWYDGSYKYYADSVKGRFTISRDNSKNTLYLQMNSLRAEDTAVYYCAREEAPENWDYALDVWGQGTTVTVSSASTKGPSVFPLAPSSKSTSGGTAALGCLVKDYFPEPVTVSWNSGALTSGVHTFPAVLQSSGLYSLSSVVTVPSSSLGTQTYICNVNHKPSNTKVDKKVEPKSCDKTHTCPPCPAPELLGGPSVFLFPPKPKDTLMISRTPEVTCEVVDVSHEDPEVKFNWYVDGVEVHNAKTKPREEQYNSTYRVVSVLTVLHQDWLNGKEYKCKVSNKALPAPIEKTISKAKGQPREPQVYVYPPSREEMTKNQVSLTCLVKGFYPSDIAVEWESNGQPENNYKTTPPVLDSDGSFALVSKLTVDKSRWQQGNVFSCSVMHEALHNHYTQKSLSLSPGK
light: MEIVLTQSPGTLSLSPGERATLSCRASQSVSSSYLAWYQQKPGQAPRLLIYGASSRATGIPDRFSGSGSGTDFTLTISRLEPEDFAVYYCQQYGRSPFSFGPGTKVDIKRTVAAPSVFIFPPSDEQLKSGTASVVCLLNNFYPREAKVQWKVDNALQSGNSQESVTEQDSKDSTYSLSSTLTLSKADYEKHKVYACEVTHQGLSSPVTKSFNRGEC
notes: as for B1

Legend:
[1] = target: T3, rabbit Fc-tagged recombinant human PD1 (rhPD1-rabbit Fc) (human, UniProt Q15116 25-167, limits assumed); assay: flow cytometry competition: inhibition of rhPD1-rabbit Fc binding to human PD-L1 on CHO cells; PE anti-rabbit IgG detection
T3 construct: also called recombinant human PD-1 protein
T3 sequence (Q15116 25-167 limits assumed): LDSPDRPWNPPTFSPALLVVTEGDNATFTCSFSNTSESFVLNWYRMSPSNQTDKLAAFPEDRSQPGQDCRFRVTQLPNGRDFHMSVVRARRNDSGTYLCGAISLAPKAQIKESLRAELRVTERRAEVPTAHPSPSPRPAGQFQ
Description: CHO-k cells stably expressing human PD-L1 or PD-L2 were used to measure the ability of anti-PD1/LAG3 bi-specific antibody constructs to block rabbit Fc-tagged recombinant human PD1 (rhPD1-rabbit Fc) protein binding. Cells were seeded at 100,000 cells/well in 100 μL of FACS buffer in 96-well polypropylene plates. The cells were centrifuged and resuspended with test antibodies (2× concentration) diluted in FACS buffer, immediately followed by equal volume of rhPD1-rabbit Fc (added at 2× concentration; 0.2 ng/mL and 0.1 ng/mL final for PD-L1 and PD-L2, respectively). Cells were incubated on ice for 1 hour and washed twice. rhPD1-rabbit Fc binding on CHO-human PD-L1 or PD-L2 cells was detected with R-Phycoerythrin AffiniPure F(ab′)₂ Fragment Goat Anti-Rabbit IgG (H+L) (1:200 dilution, Jackson ImmunoResearch) for 30 minutes. The cells were washed twice with FACS buffer, fixed in 4% paraformaldehyde in PBS for 20 mins on ice in the dark, washed twice with FACS buffer, and analyzed using the BD LSR II Flow Cytometer. Data were analyzed using FlowJo (FlowJo, LLC; Ashland, Oreg.) to determine mean fluorescence intensities. Prism 6 software was used to create one site, specific binding with Hill slope curves (Log transform) to determine IC₅₀ values.

[2] = target: LAG3 (residues 1-477) C-terminally fused to the beta-galactosidase ProLink (PK) fragment, on U2OS cells (human); assay: cell-based or functional assay
LAG3 (residues 1-477) C-terminally fused to the beta-galactosidase ProLink (PK) fragment, on U2OS cells (human), sequence (P18627 1-477): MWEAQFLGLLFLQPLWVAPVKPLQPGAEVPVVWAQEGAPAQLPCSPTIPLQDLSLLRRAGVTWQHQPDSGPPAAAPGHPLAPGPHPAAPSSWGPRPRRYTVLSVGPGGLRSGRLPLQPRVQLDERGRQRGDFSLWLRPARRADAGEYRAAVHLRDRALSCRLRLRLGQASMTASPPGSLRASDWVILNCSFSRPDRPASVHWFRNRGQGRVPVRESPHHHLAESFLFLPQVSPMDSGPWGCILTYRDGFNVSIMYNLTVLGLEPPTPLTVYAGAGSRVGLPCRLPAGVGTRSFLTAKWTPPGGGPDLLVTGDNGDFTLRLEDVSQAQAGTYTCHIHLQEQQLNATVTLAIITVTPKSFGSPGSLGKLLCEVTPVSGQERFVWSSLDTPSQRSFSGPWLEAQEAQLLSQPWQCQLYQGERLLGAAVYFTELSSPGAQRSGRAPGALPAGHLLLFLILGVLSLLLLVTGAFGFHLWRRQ

[3] = target: PD-1 (residues 1-199) C-terminally fused to the beta-galactosidase enzyme acceptor (EA) fragment, on U2OS … (human, UniProt Q15116 25-199); assay: cell-based or functional assay
[4] = target: T1, recombinant human LAG3 protein …; assay: flow cytometry competition: inhibition of biotinylated rhLAG3 binding to MHC class II on Daudi cells; PE-streptavidin detection
Description: Daudi cells expressing Major Histocompatibility Class II (MHCII) molecules, the natural ligand for LAG3, were used to measure the ability of anti-PD1/LAG3 bi-specific antibody constructs to block biotinylated (ThermoFisher, Cat #21329) recombinant human LAG3 protein (rhLAG3, R&D Cat #2319-C3) binding. Cells were seeded at 100,000 cells/well in 100 μL of FACS buffer in 96-well polypropylene plates. The cells were centrifuged and resuspended with test antibodies (2× concentration) diluted in FACS buffer, immediately followed by equal volume of biotinylated rhLAG3 (added at 2× concentration; 7.5 μg/mL final). Cells were incubated on ice for 1 hour and washed twice. Biotinylated rhLAG3 binding was detected with 2 μg/mL R-Phycoerythrin-conjugated Streptavidin (eBioscience) for 30 minutes. Cells were washed twice with FACS buffer, fixed in 4% paraformaldehyde in PBS for 20 mins on ice in the dark, washed twice with FACS buffer, and analyzed using the BD LSR II Flow Cytometer. Data were analyzed using FlowJo (FlowJo, LLC; Ashland, Oreg.) to determine mean fluorescence intensities. Prism 6 software was used to create one site, specific binding with Hill slope curves (Log transform) to determine IC₅₀ values. […]

[5] = target: T2, hLAG3 (Acro Biosystems), SPR analyte; assay: SPR (Biacore), antibody captured by anti-Fc, hLAG3 as analyte, 25 C
Description: Anti-Fc polyclonal antibodies were immobilized onto a CMS chip (GE Life Sciences) using amine coupling chemistry (from Amine Coupling Kit, GE Life Sciences). The immobilization steps were carried out at a flow rate of 25 μl/min in 1×HBS-EP+buffer (GE Life Sciences; 10× Stock diluted before use). The sensor surfaces were activated for 7 min with a mixture of NHS (0.05 M) and EDC (0.2 M). The Anti-Fc antibodies were injected over all 4 flow cells at a concentration of 25 ug/ml in 10 mM sodium acetate, pH 4.5, for 7 min. Ethanolamine (1 M, pH 8.5) was injected for 7 min to block any remaining activated groups. An average of 12,000 response units (RU) of capture antibody was immobilized on each flow cell.
Kinetic binding experiments were performed at 25° C. using 1×HBS-EP+buffer. Test and control antibodies were injected over the anti-Fc surface at concentrations of 5-10 μg/mL for 12 seconds at a flow rate of 10 μl/min on flow cells 2, 3 and 4, followed by a buffer wash for 30 seconds at the same flow rate. Kinetic characterization of antibody samples was carried out with a dilution series of antigen and 1 injection of 0 nM antigen. After capturing ligand (antibody) on the anti-Fc surface, the analyte (hPD1 or hLAG3, Acro Biosystems, Newark, Del.) was bound at 100, 25, 6.25 and 0 nM for 180 seconds, followed by a 450 second dissociation phase at a flow rate of 50 μl/min. Between each ligand capture and analyte binding cycle, regeneration was carried out using 2 injections of 10 mM Glycine pH 2.0 for 30 seconds at 30 μL/min, followed by a 30 second buffer wash step.
The data was fit with the Biacore T200 Evaluation software, using a 1:1 Langmuir binding model. KD (affinity, nM) was determined as a ratio of the kinetic rate constants calculated from the fits of the association and dissociation phases.

Binder | IC50 [1] [pM] | EC50 of beta-galactosidase enzyme-fragment complementation (RLU) on U2OS cells co-expressing PD-1-EA and LAG3-PK; PD-1/LAG3 cell bridging, needs both targets [2] [pM] | EC50 of beta-galactosidase enzyme-fragment complementation (RLU) on U2OS cells co-expressing PD-1-EA and LAG3-PK; PD-1/LAG3 cell bridging, needs both targets [3] [pM] | IC50 [4] [pM] | Kd [5] [pM] | koff [5] [s⁻¹] | kon [5] [M⁻¹ s⁻¹]
B1 | 4700 | 160 | 160 | 24000 | 94.4 | 0.000138 | 1.46e+06
B2 | 2400 | 130 | 130 | 24000 | 519 | 0.000694 | 1.34e+06
